Measurements taken from patent US20230220073A1 (UCL BUSINESS, published 2023).
Residue numbers refer to the chain shown, from its start.

B1: Clone G5 chimeric ROR1 antibody (antibody, V domains shown)
VH: EVQVVESGGGLVQPGRSLKLSCVPSGFTFNNYWMTWIRQAPGKAPEWVASISNTGGSTFYPDSVRGRFSISRDNTKGTLYLHMTSLRSEDTATYYCIRNMDAWGQGTSVTVSS
VL: DIQLTQSPSTLSASLGERVTISCRASQSISNSLNWYQQKPDGTVKRLIYSTSTLESGVPSRFSGSGSGTDFSLSISSLESEDFAMYYCLQFATYPQVTFGSGTKLEIK
B2: Clone G3 chimeric ROR1 antibody (antibody, V domains shown)
VH: EVQLQESGPGLVKPAQSLSLTCSVTGYSITNMYRWNWIRKFPGNKLEWMGYINTAGSTDYSPSLRGRVSITGDTSKNQFFLHLTSVTTEDTATYYCAGFITNPFDFWGQGVMVTVSS
VL: DVVMTQTPVSLPVSLGGQVSISCRSSQSLEHSNGDTFLHWYLQKPGQSPRLLIYRVSNRFSGVPDRFSGSGSGTDFTLKISRIEPEDLGDYYCLQSTHFPNTFGAGTKLELK
B3: Clone Pi chimeric ROR1 antibody (antibody, V domains shown)
VH: EVQLVESGGGLVQPGRSLTLSCSASGFTFRDYNMAWVRQAPRKGLEWVATISFDDYNTYYRDSVKGRFTISRDDAKSTLYLQMDSLRSEDTATYYCARPGTYWGQGTLVTVSS
VL: DIQLTQSPSSLSASLGDRVSLTCQSSQGIGKYLSWFQHKPGKPPKPVINYATNLADGVPSRFSGRRSGSDFSLTISSLESEDTAIYYCLQFDDFRWTVGGGTKLELK
B4: Clone I chimeric ROR1 antibody (antibody, V domains shown)
VH: EVQLVESGGGSVQPGRSLKLSCAASGFTFSDYNMAWVRQAPKKGPEWVATITYDVHNAYYRDSVKGRFTISRDDAKSTLYLQMDSLRSEDTATYFCARPGAYWGQGTLVTVSS
VL: DIQLTQSPSSMSASLGDRVSLTCQSSQGIGKYLSWYQHKPGKPPKAMIYYATKLADGVPSRFSGSRSGSDFSLTISSLESEDIAIYYCLQFDDYPWTFGGGTKLELK
B5: Clone J chimeric ROR1 antibody (antibody, V domains shown)
VH: DVKLVESGGGLLKPGGSLKLSCVASGFSFSKYWMHWVRQAPGQGLEWIAEIEYDGTETNYAPSIKDRFTISRDNAKNTLYLQMSNVRFEDAATYFCTTEEMHTTDYYYGFAYWGQGTLVTVSS
VL: DIVLTQSPALAVSVGQRATISCRASQSVSISRYDFMHWYQQKPGQQPKLLIYRASNLASGIPARFSGSGSGTDFTLTINPVQADDIATYYCQQNRESPRTFGGGTKLELK
notes: also called J6
B6: Clone E7 chimeric ROR1 antibody (antibody, V domains shown)
VH: GKLVESGGGLLKPGGSLKLSCVASGFTFDKYWMHWVRQAPGKGLEWIAEIEYDGTETNYAPSIKDRFTISRDNAKNTLYLQMSNVRSEDAATYFCTTEEMYTTDYYYGFAYWGQGTLVTVSS
VL: B5 VL with D34N
B7: Clone O chimeric ROR1 antibody (antibody, V domains shown)
VH: QVRLLQSGAALVKPGASVKMSCKASGYTFTDYWMSWVKQSHGKSLEWIGEIYPNSGATNFNEKFKDKATLTVDRSTSTAYMELSRLTSEDSAIYYCARGFPNNYLSWFAYWGQGTLVTVSS
VL: DIVLTQSPALAVSLEQRVTIACKTSQNVDNHGISYMHWYQQKSGQEPKLLIYEGSNLAVGIPARFSGSGSGTDFTLTIDPVEADDIETYYCQQSKDDPRTFGGGTKLELK
B8: Clone B chimeric ROR1 antibody (antibody, V domains shown)
VH: DVQLEESGGGLVRPGRSLKLSCADSGVNFSNRGMAWVRQAPTKGLEWVATISYDGRIIYYRDSVKGRFSISRENAKSTLYLQMDSLRSEDTATYYCARHPIAADWYFDFWGPGTMVTVSS
VL: DIRMTQSPASLSASLGETVTIECLTSEDIYSDLAWFQQKPGKSPQLLIYDANSLQNGVPSRFGGCGSGTQYSLQISSLQSEDVATYFCQQYKNYPPTFGGGTKLVLK
notes: also called B5
B9: D10 (previously published ROR1 antibody, the prototype of Cirmtuzumab) (antibody, V domains shown)
VH: QVQLKESGPGLVAPSQTLSITCTVSGFSLTSYGVHWVRQPPGKGLEWLGVIWAGGFTNYNSALKSRLSISKDNSKSQVLLKMTSLQTDDTAMYYCARRGSSYSMDYWGQGTSVIVSS
VL: EIVLSQSPAITAASLGQKVTITCSASSNVSYIHWYQQRSGTSPRPWIYEISKLASGVPVRFSGSGSGTSYSLTISSMEAEDAAIYYCQQWNYPLITFGSGTKLEIQ
B10: R12 (previously published ROR1 antibody) (antibody, V domains shown)
VH: QEQLVESGGRLVTPGGSLTLSCKASGFDFSAYYMSWVRQAPGKGLEWIATIYPSSGKTYYATWVNGRFTISSDNAQNTVDLQMNSLTAADRATYFCARDSYADDGALFNIWGPGTLVTISS
VL: ELVLTQSPSVSAALGSPAKITCTLSSAHKTDTIDWYQQLQGEAPRYLMQVQSDGSYTKRPGVPDRFSGSSSGADRYLIIPSVQADDEADYYCGADYIGGYVFGGGTQLTVTG
B11: 4a5 (previously published ROR1 antibody) (antibody, V domains shown)
VH: EVKLVESGGGLVKPGGSLKLSCAASGFTFSSYAMSWVRQIPEKRLEWVASISRGGTTYYPDSVKGRFTISRDNVRNILYLQMSSLRSEDTAMYYCGRYDYDGYYAMDYWGQGTSVTVSS
VL: DIKMTQSPSSMYASLGERVTITCKASPDINSYLSWFQQKPGKSPKTLIYRANRLVDGVPSRFSGGGSGQDYSLTINSLEYEDMGIYYCLQYDEFPYTFGGGTKLEMK

Molecular target: T1, ROR1, full extracellular region, on transduced SUP-T1 cells (UniProt Q01973 30-406)
T1 construct: extracellular domain; also called eROR1; extracellular ROR1
T1 sequence (Q01973 30-406): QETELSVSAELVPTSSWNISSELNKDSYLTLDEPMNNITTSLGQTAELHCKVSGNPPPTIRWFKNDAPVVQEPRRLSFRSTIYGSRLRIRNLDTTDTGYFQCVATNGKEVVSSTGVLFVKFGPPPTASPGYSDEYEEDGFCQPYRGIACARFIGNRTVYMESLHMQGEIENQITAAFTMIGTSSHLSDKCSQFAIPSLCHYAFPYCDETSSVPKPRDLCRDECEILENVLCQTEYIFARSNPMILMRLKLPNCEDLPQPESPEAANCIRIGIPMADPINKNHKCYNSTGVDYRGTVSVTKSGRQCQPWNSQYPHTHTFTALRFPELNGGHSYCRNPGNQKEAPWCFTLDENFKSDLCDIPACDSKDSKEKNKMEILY
Assay: flow cytometry, ROR1-transduced cells, single staining; Q1 = ahFc+ only; amFc+ahFc alone Q1 0.060
Text: FIG. 7A-FIG. 7C: Competition assay by flow cytometry. Clone A (SA1) in murine IgG2a, k (mSA1) along with other ROR1 MAbs in human IgG1, k-including previously published 4a5, D10 and R12 clones—were used for staining ROR1-transduced cells. MAb staining was done as FIG. 7A-FIG. 7B: single agents or FIG. 7C: in combination with clone A (mSA1). Anti-human IgG (450) and anti-mouse IgG (DyLight649) were used as secondary antibodies. Combined staining using clones F and mSA1 acted as negative control for overlapping epitopes.
In FIG. 7C, three different columns are presented. Dot plots on the first column correspond to ROR1 binding assessed when SUP-T1 ROR1 cells were stained with clone A (SA1) (mIgG) in the first instance. After a washing step, cells were stained with a competitor antibody (hIgG), followed by another washing step. Both antibodies were then detected by a third staining step using the appropriate secondary antibodies. In the second column, a similar approach was taken when staining these cells, except that this time it was the antibody in hIgG1, k format the one used for the first staining step, followed by clone A (SA1) staining. On the third column, both antibodies were used at the same time.

| Q1 quadrant figure | Binder |
| --- | --- |
| 96.7 | B1 |
| 96.1 | B2 |

Molecular target: T2, ROR1 Frizzled domain alone, on transduced SUP-T1 cells (human, UniProt Q01973 165-299)
T2 construct: domain: Fz; also called Fz; ROR1-Fz domain
T2 sequence (Q01973 165-299): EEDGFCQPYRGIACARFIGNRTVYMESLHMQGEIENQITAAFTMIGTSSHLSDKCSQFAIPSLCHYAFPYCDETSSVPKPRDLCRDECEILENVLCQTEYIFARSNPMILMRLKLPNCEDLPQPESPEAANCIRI
Assay: flow cytometry, transduced SUP-T1 cells, anti-human Fc-Dylight647
Description: (§1) FIG. 1A-FIG. 1C: Identification of ROR1 binding domain: FIG. 1A: SUP-T1 cells were transduced with retroviral vectors containing either the full extracellular portion of ROR1 or only one or two extracellular domains. Non-transduced SUP-T1 (SUP-T1 NT) cells served as negative control. FIG. 1B: All 12 chimeric antibodies and FIG. 1C all 10 positive clones in scFv format were incubated with SUP-T1 NT and the new stable cell lines at 4° C. for 30 min. Cells were washed and stained with a secondary antibody (anti-human Fc-Dylight647), which was used as negative control. eROR1=extracellular ROR1, Ig-like=Immunoglobulin-like domain, Fz=Frizzled domain, Kg=Kringle domain.

| binding result | Binder |
| --- | --- |
| no binding | B1 |
| no binding | B3 |
| no binding | B2 |
| no binding | B4 |
| no binding | B5 |
| no binding | B6 |
| no binding | B7 |
| no binding | B8 |

Molecular target: T3, Kringle (Kg) (human, UniProt Q01973)
T3 construct: also called ROR1 Kringle domain alone, on transduced SUP-T1 cells
T3 sequence (Q01973 312-391 limits assumed): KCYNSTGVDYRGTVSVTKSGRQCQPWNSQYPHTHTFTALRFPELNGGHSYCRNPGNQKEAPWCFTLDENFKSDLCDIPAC
Assay: as above
Description: as §1

| binding result | Binder |
| --- | --- |
| no binding | B1 |
| no binding | B3 |
| no binding | B2 |
| no binding | B4 |
| no binding | B5 |
| no binding | B6 |
| no binding | B7 |
| no binding | B8 |

Molecular target: T4, Fz+Kg (human, UniProt Q01973)
T4 construct: also called ROR1 Frizzled+Kringle domains, on transduced SUP-T1 cells
T4 sequence (Q01973 165-391 limits assumed): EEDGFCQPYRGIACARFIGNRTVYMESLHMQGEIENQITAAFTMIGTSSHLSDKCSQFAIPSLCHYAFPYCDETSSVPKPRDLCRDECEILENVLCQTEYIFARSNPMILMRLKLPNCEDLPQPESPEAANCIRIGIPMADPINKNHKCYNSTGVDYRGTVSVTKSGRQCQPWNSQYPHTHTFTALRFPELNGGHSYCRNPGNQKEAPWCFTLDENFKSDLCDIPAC
Assay: as above
Description: as §1

| binding result | Binder |
| --- | --- |
| no binding | B1 |
| no binding | B3 |
| no binding | B2 |
| no binding | B4 |
| no binding | B5 |
| no binding | B6 |
| no binding | B7 |
| no binding | B8 |

Molecular target: T5, Histidine-tagged ROR1 protein (extracellular region) (UniProt Q01973 30-406)
T5 construct: extracellular domain; also called extracellular portion of ROR1 bearing a Histidine tag; not shown: Histidine tag
T5 sequence (Q01973 30-406): as the sequence (Q01973 30-406) above
Assay: SPR, Biacore X100; antibody captured by anti-human IgG1 on CM5 chip, His-tagged ROR1 extracellular portion injected at 1.5-100 nM
Description: FIG. 3: KD determination by surface plasmon resonance. Sensorgrams obtained using a Biacore X100 instrument are shown. Briefly, ROR1 antibodies were immobilized using a CM5 chip and seven different concentrations of the Histidine-tagged ROR1 protein (extracellular region) were injected. Concentrations ranged from […].
We undertook surface plasmon resonance evaluation using a Biacore X100 instrument. ROR1 chimeric antibodies were immobilised using an anti-human IgG1 antibody capture kit and a CM5 sensor chip. Seven different concentrations, ranging from 1.5-100 nM, of the extracellular portion of ROR1 bearing a Histidine tag were then injected.

| Kd [nM] | koff [s⁻¹] | kon [M⁻¹ s⁻¹] | Binder |
| --- | --- | --- | --- |
| 2.61 | 0.000416 | 159000 | B1 |
| 1.98 | 0.000349 | 176000 | B3 |
| 2.45 | 0.000266 | 109000 | B2 |
| 2.44 | 0.00051 | 209000 | B4 |
| 3.35 | 0.000835 | 249000 | B5 |
| 2.04 | 0.000849 | 417000 | B6 |
| 3.5 | 0.000607 | 174000 | B7 |
| 1.5 | 0.000698 | 464000 | B8 |

Molecular target: T1, ROR1, full extracellular region, on …
Assay: flow cytometry, ROR1-transduced cells, single staining; Q1 = ahFc+ only; amFc+ahFc alone Q1 0.060 (FIG. 7A)

| Q1 quadrant figure | Binder |
| --- | --- |
| 84.3 | B9 |
| 96.9 | B10 |
| 96.9 | B11 |
